Assay results published in publication PMC7772510.

Target: complement fragment iC3b (UniProt P01024)
Experiment: ELISA

Substance: GST-αM I-domain (domain or fragment)
- percent of the anticipated saturation level at 8 µM: 50%
